Results on 8 molecules are retold here after patent publication US20200109194A1 (BLUEFIN BIOMEDICINE, published 2020).

First the molecules themselves.
T1: human TMEFF1 extracellular domain recombinant protein (plasmid BBP377, S40-V330, C-terminal 8xHis) (human, UniProt Q8IYR6 40-330)
T1 construct: Secreted from CHO cells with a non-native signal peptide (not part of the mature protein); also called hTMEFF1 ECD; hTMEFF1-ECD
T1 sequence: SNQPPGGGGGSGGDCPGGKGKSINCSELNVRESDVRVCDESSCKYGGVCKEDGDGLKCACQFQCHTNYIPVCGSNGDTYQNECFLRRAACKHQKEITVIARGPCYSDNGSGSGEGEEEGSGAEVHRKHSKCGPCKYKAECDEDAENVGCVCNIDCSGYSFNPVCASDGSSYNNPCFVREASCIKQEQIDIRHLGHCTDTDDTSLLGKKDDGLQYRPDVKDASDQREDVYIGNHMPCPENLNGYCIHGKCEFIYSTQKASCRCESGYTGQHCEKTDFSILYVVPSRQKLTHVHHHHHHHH

T2: endogenous human TMEFF1 on cancer cell lines (H69, HCC1187, PA-1, H526, H1048) (human, UniProt Q8IYR6 40-380)
T2 sequence: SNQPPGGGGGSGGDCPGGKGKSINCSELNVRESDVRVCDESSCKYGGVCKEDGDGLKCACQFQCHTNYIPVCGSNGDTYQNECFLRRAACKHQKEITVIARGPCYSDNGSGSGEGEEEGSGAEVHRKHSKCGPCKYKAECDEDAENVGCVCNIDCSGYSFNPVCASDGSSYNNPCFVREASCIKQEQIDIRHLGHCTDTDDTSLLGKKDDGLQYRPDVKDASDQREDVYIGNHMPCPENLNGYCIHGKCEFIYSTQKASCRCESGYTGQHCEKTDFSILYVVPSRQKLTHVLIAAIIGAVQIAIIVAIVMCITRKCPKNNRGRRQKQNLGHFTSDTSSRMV

B1: M1F1 (antibody, human IgG1, V domains shown)
VH: QVQLQESGPGLVKPSETLSLTCAVSGYSISSGYFWGWIRQPPGKKLEWIGSIYHSGSTYYNPSLKSRVTMSVDTSKNQFSLKLSSVTAADTAVYYCAREGDCSGGICYWYFDLWGRGTLVTVSS
VL: EIVMTQSPATLSVSPGERATLSCRASQSVSSNLAWYQQKPGQAPRLLIYGASTRATGIPARFSGSGSGTEVTLTISSLQSEDFAVYYCQQYNKWPLTFGGGTKVEIK
B2: 31B7 (antibody, human IgG1, V domains shown)
VH: QVQLVESGGGVVQPGRSLRLSCAASGFTFSSYGMHWVRQAPGKGLEWVAVIWYNGINKYYADSVKGRFTISRDASKNTLYLQMNSLRAEDTAVYYCAREGLLWFGGMDVWGQGTTVTVSS
VL: EIVLTQSPLSLPVTPGEPASISCRSSQSLLHSNGYNYLHWYLQKPGQSPQLLIYLGSNRASGVPDRFSGSRSGTDFTLKIIRVEAEDVGVYYCMQALQTPYTFGQGTKLEIK
B3: 34B7 (antibody, human IgG1, V domains shown)
VH: QVQLVESGGGVVQPGRSLRLSCAASGFTFTSYGMHWVRQAPGKGLEWVAVVWYEGNSKFYIDSVKGRFIISRDNSKNTLYLQMNSLRAEDTAVYYCARAYCGDDCYPFDYWGQGTLVTVSS
VL: DIQMTQSPSSLSASVGDRVTITCRASQGISNYLAWYQQKPGKVPKLLIYAASTLQSGVPSRFSGSGSGTDFTLTISSLQPEDVATYYCQKYNSAPWTFGQGTKLEIK
B4: 36H6 (antibody, human IgG1, V domains shown)
VH: QVQLVESGGGVVQPGRSLRLSCAASGFTFSDYGMHWVRQAPGKGLEWVAVIWYEGGNKYYTDSVKGRFTISRDNSKNTLYLQMNSLRAEDTAVYYCARILLWFGESYGMDVWGQGTTVTVSS
VL: B3 VL with S93N, L104V
B5: 24F10 (antibody, V domains shown)
VH: QVQLVESGGGVVQPGRSLRLSCAASGFTFSSYGMHWVRQAPGKGLEWVAVIWYDGSDKYYTDSVKGRFTISRDNSKNTLYLQMNSLRAEDTAVYYCARESMVRGIVITFFDYWGQGTLVTVSS
VL: B1 VL with V71F, Y87S, Q90H, K93N, L96P
B6: 30C10 (antibody, human IgG1, V domains shown)
VH: B5 VH with T61A, N77K, Y95F, S100T, M101I, V102F, I105L, V106T, Y112H
VL: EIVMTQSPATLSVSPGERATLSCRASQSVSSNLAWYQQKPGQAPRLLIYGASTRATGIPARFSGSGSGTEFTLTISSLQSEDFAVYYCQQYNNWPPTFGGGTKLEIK
B7: M10 (antibody, human IgG1, V domains shown)
VH: B5 VH with V11G, S31R, K58E, T61A, S100T, V102G, V106I, T108S, F109Y, L118P
VL: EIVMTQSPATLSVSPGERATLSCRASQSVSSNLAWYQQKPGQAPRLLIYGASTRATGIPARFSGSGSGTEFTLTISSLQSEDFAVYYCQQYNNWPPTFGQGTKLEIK
B8: 30C10-PBD (antibody, human IgG1, V domains shown)
VH: B5 VH with T61A, N77K, Y95F, S100T, M101I, V102F, I105L, V106T, Y112H
VL: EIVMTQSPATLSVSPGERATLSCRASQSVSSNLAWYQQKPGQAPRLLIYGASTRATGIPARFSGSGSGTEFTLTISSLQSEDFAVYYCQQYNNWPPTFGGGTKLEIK
modifications: MA-PEG8-VA-PAB-SG3199 (PBD) on TCEP-reduced hinge region thiols, sites not stated; DAR 1.7

Positions count from the first letter of the chain named.

One assay addresses T1, human TMEFF1 extracellular domain …. In words: BLI (Octet Red), antibody on Protein A biosensor, recombinant hTMEFF1 ECD as analyte. How it is done: (§1) The affinity of antibodies to various recombinant TMEFF1 protein was determined on an Octet Red™ instrument. After loading reagents into a 96-well plate, the Octet Red™ with Protein A-conjugated biosensors was programmed as follows: 30 seconds for baseline #1; 120 seconds to immobilize the antibody; 30 seconds for baseline #2; 300 seconds for association of antibody to recombinant TMEFF1; and 300-600 seconds for dissociation of recombinant TMEFF1 from the antibody.
Affinity of thirteen antibodies was calculated using hTMEFF1 ECD recombinant protein by Octet™.
As for B1, the Kd was determined as 19 nM.

For the molecule B2, the equilibrium dissociation constant (Kd) was 43 nM.

In the case of B3, the equilibrium dissociation constant (Kd) was 20 nM.

Turning to B4, the Kd was 51 nM.

With B5, the dissociation constant Kd was 50 nM.

As for B6, the equilibrium dissociation constant (Kd) turned out to be 4 nM.

For B7, the Kd was found to be 9 nM.

A further assay concerns the target T2, endogenous human TMEFF1 on cancer cell …. Kind of assay: cell-based or functional assay.
In the case of B8, the “IC50 of growth of H526 cells (CellTiter Glo, 5 days)” value worked out at 4.27 ng/mL and the “IC50 of growth of H1048 cells (CellTiter Glo, 5 days)” value was found to be 0.53 ng/mL.

A further assay concerns the target T3, Macaca fascicularis TMEFF1 extracellular domain recombinant protein (plasmid BBP480, S40-V330, C-terminal … (Macaca fascicularis)).
T3 construct: range 40-330; also called cyTMEFF1 ECD; monkey TMEFF1 ectodomain
Kind of assay: BLI (Octet Red), antibody on Protein A biosensor, recombinant cyTMEFF1 ECD as analyte. How it is done: as §1
Affinity of 7 antibodies was calculated using cyTMEFF1 ECD recombinant protein by Octet™.
With B1, the dissociation constant (Kd) came out at 27 nM.

For the molecule B2, the Kd stood at 101 nM.

As to B3, the equilibrium dissociation constant (Kd) worked out at 22 nM.

With B4, the Kd was 96 nM.

Turning to B5, the equilibrium dissociation constant (Kd) amounted to 65 nM.

With B6, the Kd turned out to be 7 nM.

Consider B7, for which the Kd was 7 nM.
